{"source": "patent US20250026836A1", "about": "(UCB, published 2025)", "binders": {"B1": {"name": "Rabbit Fab (VR12389) (Fab, V domains shown)", "VH": "QSVEESGGRLVTPGTPLTLTCTVSGIDLSSNAMSWVRQAPGEGLEWIGTISSGGRTYYASWAKGRFTISKTSTTVDLKIPSPTTEDTATYFCGRGDGATGFNIWGPGTLVTVSS", "VL": "ALVMTQTPASVSEPVGGTVTIKCQASQSIYSYLSWYQQKPGQPPKLLIYKASTLASGVSSRFKGSGSGTQFTLTISDLECGDAATYYCQNHWNVGGNGWPFGGGTEVVVKR", "notes": "Used for the crystal structure; also called VR12389 RbFab"}, "B2": {"name": "12389gL2gH1 hIgG4P (antibody)", "heavy": "not shown", "light": "AIVLTQSPSSLSASVGDRVTITCQASQSIYSYLSWYQQKPGKAPKLLIYKASTLASGVPSRFSGSGSGTDFTLTISSLQPEDFATYYCQNHWNVGGNGWPFGGGTKVEIKRTVAAPSVFIFPPSDEQLKSGTASVVCLLNNFYPREAKVQWKVDNALQSGNSQESVTEQDSKDSTYSLSSTLTLSKADYEKHKVYACEVTHQGLSSPVTKSFNRGEC"}, "B3": {"name": "12389gL1gH1 hIgG4P (antibody, V domains shown)", "VH": "EVQLVESGGGLVQPGGSLRLSCAVSGIDLSSNAMSWVRQAPGKGLEWIGTISSGGRTYYASWAKGRFTISKDSSKNTVYLQMNSLRAEDTAVYYCGRGDGATGFNIWGQGTLVTVSS", "VL": "AIVLTQSPSSLSASVGDRVTITCQASQSIYSYLSWYQQKPGKAPKLLIYKASTLASGVPSRFSGSGSGTQFTLTISSLQPEDFATYYCQNHWNVGGNGWPFGGGTKVEIKR"}, "B4": {"name": "12389gL2gH6 hIgG4P (antibody, V domains shown)", "VH": "B3 VH with G49S", "VL": "B3 VL with Q70D"}, "B5": {"name": "12389gL2gH9 hIgG4P (antibody, V domains shown)", "VH": "B3 VH with S73N", "VL": "B3 VL with Q70D"}, "B6": {"name": "12389gL2gH15 hIgG4P (antibody, V domains shown)", "VH": "B3 VH with S73N, G96A", "VL": "B3 VL with Q70D"}, "B7": {"name": "12389gL2gH8 hIgG4P (antibody, V domains shown)", "VH": "B3 VH with K71R", "VL": "B3 VL with Q70D"}, "B8": {"name": "12389gL2gH13 hIgG4P (antibody, V domains shown)", "VH": "B3 VH with V24A, S73N", "VL": "B3 VL with Q70D"}, "B9": {"name": "12389gL3gH1 hIgG4P (antibody)", "heavy": "not shown", "light": "B2 light with V3Q"}, "B10": {"name": "12389gL2gH5 hIgG4P (antibody, V domains shown)", "VH": "B3 VH with I48V", "VL": "B3 VL with Q70D"}, "B11": {"name": "12389gL2gH4 hIgG4P (antibody, V domains shown)", "VH": "B3 VH with V24A", "VL": "B3 VL with Q70D"}, "B12": {"name": "12389gL2gH16 hIgG4P (antibody)", "heavy": "not shown", "light": "B2 light", "notes": "also called Graft 12389gL2gH16"}, "B13": {"name": "12389gL3gH16 hIgG4P (antibody)", "heavy": "not shown", "light": "B2 light with V3Q"}, "B14": {"name": "12389gL2gH11 hIgG4P (antibody, V domains shown)", "VH": "B3 VH with V78L", "VL": "B3 VL with Q70D"}, "B15": {"name": "12389gL2gH12 hIgG4P (antibody, V domains shown)", "VH": "B3 VH with G96A", "VL": "B3 VL with Q70D"}, "B16": {"name": "12389gL2gH14 hIgG4P (antibody, V domains shown)", "VH": "B3 VH with V24A, G96A", "VL": "B3 VL with Q70D"}, "B17": {"name": "12389 (chimeric rabbit V regions/human Fc) expressed as hIgG4P (antibody, V domains shown)", "VH": "B1 VH", "VL": "ALVMTQTPASVSEPVGGTVTIKCQASQSIYSYLSWYQQKPGQPPKLLIYKASTLASGVSSRFKGSGSGTQFTLTISDLECGDAATYYCQNHWNVGGNGWPFGGGTEVVVK"}, "B18": {"name": "12389 (chimeric rabbit V regions/human Fc) expressed as hIgG1 (antibody, V domains shown)", "VH": "B1 VH", "VL": "B17 VL"}}, "note": "Changes are numbered by the printed parent chain."}
{"biological_target": "T1, PeptideB2mHLAG C42S mut (single-chain peptide-B2m-HLA-G ECD fusion, His tag removed) (human)", "T1 construct": "Used for complexing and in the crystal structure; also called HLA-G fusion protein", "experiment": "complex formation and size exclusion chromatography before crystallisation"}
{"binder": "B1", "binding result": "binds"}
{"biological_target": "T2, Human HLA-G ECD + B2m (soluble, AVItev10His tag) (human)", "T2 construct": "also called soluble HLA-G", "experiment": "SPR, 25 C, hIgG4P captured via anti-human Fc, HLA-G ECD+B2m 50 nM as analyte;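 note: biacore T200 readout, 60 s association then 150 s dissociation, reference-cell background subtracted, kinetics fitted to a 1:1 binding model with local Rmax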", "units": {"Kd": "nM", "koff": "s⁻¹", "kon": "M⁻¹ s⁻¹"}}
{"binder": "B2", "Kd": 7.63, "koff": 0.00708, "kon": 928000}
{"binder": "B3", "Kd": 7.99, "koff": 0.00678, "kon": 848000}
{"binder": "B4", "Kd": 12.5, "koff": 0.0104, "kon": 839000}
{"binder": "B5", "Kd": 7.09, "koff": 0.00603, "kon": 850000}
{"binder": "B6", "Kd": 6.33, "koff": 0.00567, "kon": 896000}
{"binder": "B7", "Kd": 15.4, "koff": 0.0121, "kon": 787000}
{"binder": "B8", "Kd": 6.61, "koff": 0.00632, "kon": 956000}
{"binder": "B9", "Kd": 8.25, "koff": 0.00697, "kon": 845000}
{"binder": "B10", "Kd": 12.4, "koff": 0.0101, "kon": 817000}
{"binder": "B11", "Kd": 8.09, "koff": 0.00718, "kon": 888000}
{"binder": "B12", "Kd": 6.06}
{"binder": "B13", "Kd": 6.72}
{"binder": "B14", "Kd": 10.7, "koff": 0.00907, "kon": 850000}
{"binder": "B15", "Kd": 7.39, "koff": 0.00624, "kon": 844000}
{"binder": "B16", "Kd": 7.58, "koff": 0.00664, "kon": 875000}
{"binder": "B17", "Kd": 9.69, "koff": 0.0092, "kon": 949000}
{"biological_target": "T2, Human HLA-G ECD + B2m (soluble, …)", "experiment": "SPR, 25 C, hIgG1 captured via anti-human Fc, HLA-G ECD+B2m 50 nM as analyte, first experiment", "units": {"Kd": "nM", "koff": "s⁻¹", "kon": "M⁻¹ s⁻¹"}}
{"binder": "B18", "Kd": 10.8, "koff": 0.0091, "kon": 841000}
{"biological_target": "T2, Human HLA-G ECD + B2m (soluble, …)", "experiment": "SPR, 25 C, hIgG1 captured via anti-human Fc, HLA-G ECD+B2m 50 nM as analyte, second experiment", "units": {"Kd": "nM", "koff": "s⁻¹", "kon": "M⁻¹ s⁻¹"}}
{"binder": "B18", "Kd": 11.7, "koff": 0.00918, "kon": 782000}
